Assay results published in patent US12428663B2, “Identification of DNA polymerase theta inactivation mechanism” (The Johns Hopkins University, priority 2018, dated 2025).

Tested on: primer-template complex 5
Experiment: Steady-state kinetic analysis of dA incorporation in 5 by Pol θ variants (polymerase activity)
Assay type: biochemical
Settings: dA incorporation in 5, 25° C.
Description: 1.4.3. Steady-state kinetic analysis of dA incorporation in 5 by Pol θ. Polymerase reactions were conducted with Pol θ (432 pM for wild type Pol θ and 5 nM for K2383A and K2383R), 5′-^32P-5 (50 nM), and a range of dATP concentrations (0.25 μM-100 μM for wild type and 62.5-5000 μM for mutants) at 25° C. in reaction buffer (10 mM Tris HCl pH 8, 25 mM KCl, 10 mM MgCl2, 1 mM BME). The concentration range for dATP and the reaction time were selected so that reactions proceeded no further than 25% (single-hit conditions). In a typical experiment, a 2×DNApolymerase solution was prepared by mixing 5′-^32P-5 (500 nM, 18 μL), 10×reaction buffer (18 μL), 10×Pol θ (4.32 nM for wild type or 50 nM for mutants, 18 μL) in storage buffer (20 mM Tris HCl pH 7, 300 mM NaCl, 10% glycerol, 5 mM BME), and H2O (36 μL). The 2×DNAenzyme solution (3 μL) was mixed with the appropriate 2×dNTP solution (3 μL) to initiate the reaction. Reactions were incubated for 20 s for wild type Pol θ, 1.5 min for K2383R, and 4 min for K2383A, after which, they were quenched with 95% formamide loading buffer containing 25 mM EDTA (6 μL). An aliquot (4 μL) was analyzed by 20% denaturing PAGE run at 55 W for approximately 3.5 h. The gel was analyzed by phosphorimaging, and the data were fit to the Michaelis-Menten equation. The kcat was determined by dividing Vmax by the active concentration of enzyme. […]

B1: wt28: wild type Pol θ catalytic core (residues 1792-2590) (protein, UniProt O75417 1792-2590, looked up, fragment)
chain: GFKDNSPISDTSFSLQLSQDGLQLTPASSSSESLSIIDVASDQNLFQTFIKEWRCKKRFSISLACEKIRSLTSSKTATIGSRFKQASSPQEIPIRDDGFPIKGCDDTLVVGLAVCWGGRDAYYFSLQKEQKHSEISASLVPPSLDPSLTLKDRMWYLQSCLRKESDKECSVVIYDFIQSYKILLLSCGISLEQSYEDPKVACWLLDPDSQEPTLHSIVTSFLPHELPLLEGMETSQGIQSLGLNAGSEHSGRYRASVESILIFNSMNQLNSLLQKENLQDVFRKVEMPSQYCLALLELNGIGFSTAECESQKHIMQAKLDAIETQAYQLAGHSFSFTSSDDIAEVLFLELKLPPNREMKNQGSKKTLGSTRRGIDNGRKLRLGRQFSTSKDVLNKLKALHPLPGLILEWRRITNAITKVVFPLQREKCLNPFLGMERIYPVSQSHTATGRITFTEPNIQNVPRDFEIKMPTLVGESPPSQAVGKGLLPMGRGKYKKGFSVNPRCQAQMEERAADRGMPFSISMRHAFVPFPGGSILAADYSQLELRILAHLSHDRRLIQVLNTGADVFRSIAAEWKMIEPESVGDDLRQQAKQICYGIIYGMGAKSLGEQMGIKENDAACYIDSFKSRYTGINQFMTETVKNCKRDGFVQTILGRRRYLPGIKDNNPYRKAHAERQAINTIVQGSAADIVKIATVNIQKQLETFHSTFKSHGHREGMLQSDQTGLSRKRKLQGMFCPIRGGFFILQLHDELLYEVAEEDVVQVAQIVKNEMESAVKLSVKLKVKVKIGASWGELKDFDV
modifications: catalytic core
Km: 5 ± 1 µM
kcat: 1.08 ± 0.2 s⁻¹
